The values that follow come from publication PMC4275180.

Assay [1] deals with Stat1 (UniProt P42224). Put plainly: GST pull-down after in vitro kinase reaction. The conditions noted are these: reference: His-KDM3A(1-394) not phosphorylated by MSK1; sites S264.
The target of assay [2] is Stat1 (UniProt P42224). Put plainly: FLAG co-IP, western blot. The conditions noted are these: reference: wild type FLAG-KDM3A; sites S264.

Consider “KDM3A 1-394 (from UniProt Q9Y4C1) His-KDM3A(1-394) phosphorylated by recombinant MSK1”, for which the “binding against the reference” value with Stat1 [1] was “gained”.

For the substance KDM3A (from UniProt Q9Y4C1) S264A, the “binding against the reference” value with Stat1 [2] is “lost”.
